Data from patent US10322164B2, “Modulation of cellular localization of cyclin C” (Rowan University, priority 2014, dated 2019).

Legend:
[1] = target: T1, cyclin C-Med13 interaction (Mus musculus, UniProt Q5SWW4); assay: Cyclin C localization and mitochondrial morphology in MEF cells incubated with TAT-HAD or control peptide (indirect immunofluorescence); format: cell-based
T1 construct: endogenous in cells; host or cells: wild type (CCNC+/+) mouse embryonic fibroblasts, SV40 T antigen immortalized
Protocol: The amino terminal sequences of cyclin C from the indicated organisms. Homologies are shaded. Boxed region is targeted using the HIV TAT basic domain fused to the 19 amino acid (aa) peptide indicated by the line above the sequence. (FIG. 11B) Representative images of MEF cells incubated with TAT-HAD peptide or control (25 μM) for three hours then fixed and stained for the nucleus (DAPI), mitochondria (MitoTracker Red) and cyclin C (α-cyclin C). Arrows indicate regions of interaction between cyclin C and mitochondria.
(§1) Cells were cultured on coverslips then fixed with 4% paraformaldehyde for 20 min, permeabilized with 0.2% Triton X-100 for 15 min, blocked with 2% BSA, and incubated with antibodies as indicated. The cells were mounted with DAPI-containing medium (Vector Labs) and the images were acquired with Nikon Eclipse 90i microscope equipped with a Retiga Exi CCD camera and NIS software for data analysis. DAPI (5 μg/ml) and Mitotracker Red (5 μg/ml) staining was used to identify nuclear and mitochondrial subcellular localization.
CCNC^+/+ and CCNC^−/− MEF cells were treated with 0.4 mM H2O2 for 4 hrs. Mitochondrial morphology was monitored by MitoTracker Red staining. The cells were imaged with the 60× objective on the Nikon Eclipse C1Ti confocal microscope equipped with a Ds-Qi1MC CCD camera. The TAT-HAD peptide was added to log phase unstressed wild type MEF cultures for 3 h prior to image acquisition.
A highly conserved region of cyclin C has been identified [Cooper, K. F. and R. Strich, Functional analysis of the Ume3p/Srb11p-RNA polymerase II holoenzyme interaction. Gene Expr, 1999. 8(1): p. 43-57; Cooper, K. F., S. Khakhina, S. K. Kim, and R. Strich, Stress-Induced Nuclear-to-Cytoplasmic Translocation of Cyclin C Promotes Mitochondrial Fission in Yeast, Dev Cell, 2014. 28: p. 161-173.], boxed, FIG. 11A) that is responsible for Med13 binding in yeast. […]

[2] = tested on: MCF-7 breast cancer cell line; assay: Cyclin C localization in stressed MCF-7 cells; format: cell-based, human; details: H2O2 0.4 mM for 4 h
Protocol: (§2) (FIG. 15A) cyclin C localization was followed in MCF-7 or MCF-10A cells exposed to H2O2 (0.4 mM) for 4 h. (FIG. 15B) cyclin C levels were monitored by Western blot in MCF-7 cells treated with (+) or without (−) CCNC specific siRNAs. β-tubulin levels were followed as a loading control. (FIG. 15C) Viability was measured (viable stain assays) in the cell lines described in (FIG. 15B) following 4 h H2O2 exposure as indicated.
as §1
(§3) To evaluate the role of cyclin C in PCD execution, CCNC specific siRNAs were used to knockdown cyclin C. The knockdown efficiency was about 70% compared to control (FIG. 14C).

HeLa cells = assay: Cyclin C localization in stressed HeLa cells; format: cell-based, human
Protocol: (FIG. 14A) cyclin C localization in H2O2 stressed cultures as indicated. See (FIG. 14B) for enlarged images for 6 hr+H2O2 cells. (FIG. 14C) Knockdown efficiency of cyclin C by siRNA. con=scrambled siRNA control. Annexin V studies in the cultures described in (FIG. 14D). Graph illustrates % annexin V positive cells for cells with and without Cyclin C siRNA knockdown in the presence or absence of H2O2. Error bars=s.e.m. Three independent cultures were assayed for each sample.
as §1, §3

MCF-10A cells = assay: Cyclin C localization and mitochondrial fission in stressed MCF-10A cells; format: cell-based, human; details: H2O2 0.4 mM for 4 h
Protocol: as §2, §1, §3

[3] = tested on: Drp1 phosphorylation at the activating serine (Ser616); assay: Drp1 Ser616 phosphorylation in Hela cells subjected to H2O2; format: cell-based, human
Source text: (§4) For phosphorylation, both inhibitory and stimulatory modifications have been identified. For example, cyclin B-Cdk1 phosphorylation at the G2/M boundary stimulates Drp1 activity to induce fission to promote mitochondrial partitioning during mitosis. This modification is clearly observed in cells arrested at the G2/M boundary following addition of the microtubule destabilizing agent nocodazole. Therefore, one possibility is that cytoplasmic cyclin C is now free to interact with another Cdk to modify Drp1 and induce fission. However, no increase was found in Drp1 phosphorylation at the activating serine (Ser616) in Hela cells subjected to H2O2 or in permeabilized CCNC^−/−MEF cells treated with GST-cyclin C. […] It is possible that the accelerated fission in these experiments results in de-phosphorylation of Ser616 helping attenuate mitochondrial fragmentation.

[4] = tested on: Drp1 phosphorylation at the activating serine (Ser616); assay: Drp1 Ser616 phosphorylation in permeabilized CCNC-/- MEF cells treated with GST-cyclin C; format: cell-based, mouse
Source text: as §4

[5] = tested on: permeabilized CCNC^−/−MEF cells; assay: Mitochondrial fragmentation in digitonin-permeabilized CCNC-/- MEF cells after adding GST fusion proteins (live confocal microscopy); format: cell-based, mouse
Protocol: To examine whether cyclin C was sufficient to induce fission or if additional stress-specific signals were required, permeabilized CCNC^−/−MEF cells were used and E. coli purified human GST-cyclin C (Hs GST-cyclin C). The CCNC^−/−null cell line was employed to avoid any contribution from endogenous cyclin C. GST-cyclin C or GST (˜4 nM) was added to digitonin treated cells and mitochondrial morphology was monitored in living cells by confocal microscopy. Images were collected for 18 min at 2 min increments. […] Deconvolved images reveled little detectable changes in mitochondrial morphology in the GST treated cultures up to 18 min (9.3%). […] To determine if this function is conserved, the activity of the yeast cyclin C fused to GST (GST-cyclin C Sc) was also examined. […] To determine if the quantity of GST-cyclin C added was rate limiting, this experiment was repeated with twice the GST-cyclin C Hs concentration as before.

[6] = permeabilized CCNC-/- MEF cells

T1 sequence (Q5SWW4 whole entry): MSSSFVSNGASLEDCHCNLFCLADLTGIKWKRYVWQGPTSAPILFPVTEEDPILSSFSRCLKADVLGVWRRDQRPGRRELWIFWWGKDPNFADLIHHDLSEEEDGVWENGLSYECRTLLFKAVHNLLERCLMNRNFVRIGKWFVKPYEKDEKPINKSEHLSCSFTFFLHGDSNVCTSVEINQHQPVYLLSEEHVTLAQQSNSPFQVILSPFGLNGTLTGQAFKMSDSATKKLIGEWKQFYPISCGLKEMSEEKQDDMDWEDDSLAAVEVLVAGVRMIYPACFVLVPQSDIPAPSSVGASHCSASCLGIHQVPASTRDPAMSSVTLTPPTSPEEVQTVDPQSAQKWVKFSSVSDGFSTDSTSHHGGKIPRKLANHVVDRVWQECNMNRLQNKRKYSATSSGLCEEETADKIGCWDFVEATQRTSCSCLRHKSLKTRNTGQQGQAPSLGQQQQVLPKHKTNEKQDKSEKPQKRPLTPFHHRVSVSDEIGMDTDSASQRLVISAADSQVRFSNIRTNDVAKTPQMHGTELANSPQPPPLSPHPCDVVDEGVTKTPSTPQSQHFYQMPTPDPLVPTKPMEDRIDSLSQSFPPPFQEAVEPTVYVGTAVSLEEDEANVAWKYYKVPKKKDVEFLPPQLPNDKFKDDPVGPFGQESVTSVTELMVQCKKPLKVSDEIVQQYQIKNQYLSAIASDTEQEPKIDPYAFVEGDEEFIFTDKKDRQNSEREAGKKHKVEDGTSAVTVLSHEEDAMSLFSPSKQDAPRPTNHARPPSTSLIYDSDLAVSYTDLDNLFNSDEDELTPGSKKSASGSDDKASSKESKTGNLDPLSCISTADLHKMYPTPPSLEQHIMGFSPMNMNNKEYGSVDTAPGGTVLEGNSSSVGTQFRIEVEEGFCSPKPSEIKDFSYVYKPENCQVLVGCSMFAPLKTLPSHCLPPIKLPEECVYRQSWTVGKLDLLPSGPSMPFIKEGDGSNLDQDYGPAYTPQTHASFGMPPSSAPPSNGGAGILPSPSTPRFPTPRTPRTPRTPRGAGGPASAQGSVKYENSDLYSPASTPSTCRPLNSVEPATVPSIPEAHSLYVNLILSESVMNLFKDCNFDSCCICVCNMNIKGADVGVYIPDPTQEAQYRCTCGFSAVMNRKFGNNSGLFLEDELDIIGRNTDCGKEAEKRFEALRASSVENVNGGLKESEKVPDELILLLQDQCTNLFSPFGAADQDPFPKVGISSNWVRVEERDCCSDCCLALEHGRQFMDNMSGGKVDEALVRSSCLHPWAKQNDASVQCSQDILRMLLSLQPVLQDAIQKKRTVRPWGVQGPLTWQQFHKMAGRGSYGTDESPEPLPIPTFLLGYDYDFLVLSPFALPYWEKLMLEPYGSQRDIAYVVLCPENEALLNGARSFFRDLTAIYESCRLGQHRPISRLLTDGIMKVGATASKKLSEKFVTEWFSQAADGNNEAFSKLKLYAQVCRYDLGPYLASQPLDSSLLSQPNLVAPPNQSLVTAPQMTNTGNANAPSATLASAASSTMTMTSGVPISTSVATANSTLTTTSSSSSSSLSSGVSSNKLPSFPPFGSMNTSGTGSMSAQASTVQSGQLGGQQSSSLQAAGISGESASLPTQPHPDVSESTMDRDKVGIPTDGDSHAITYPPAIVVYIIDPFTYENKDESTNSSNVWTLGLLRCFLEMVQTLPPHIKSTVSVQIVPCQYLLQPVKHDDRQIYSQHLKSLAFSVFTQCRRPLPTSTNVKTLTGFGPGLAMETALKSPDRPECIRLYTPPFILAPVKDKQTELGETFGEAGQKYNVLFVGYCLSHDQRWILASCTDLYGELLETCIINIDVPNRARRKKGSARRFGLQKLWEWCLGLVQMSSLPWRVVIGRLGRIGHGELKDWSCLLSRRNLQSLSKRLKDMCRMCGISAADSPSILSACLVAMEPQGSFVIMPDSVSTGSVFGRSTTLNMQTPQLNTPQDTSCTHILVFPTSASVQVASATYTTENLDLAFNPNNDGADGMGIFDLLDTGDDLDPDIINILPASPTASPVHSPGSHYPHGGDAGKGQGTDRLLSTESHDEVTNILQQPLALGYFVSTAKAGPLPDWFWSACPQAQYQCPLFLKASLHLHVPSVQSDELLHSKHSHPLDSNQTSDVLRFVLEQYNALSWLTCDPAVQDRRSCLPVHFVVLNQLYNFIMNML

Molecule: YGRKKRRQRRRWILDKQDLLKERQKDL (SEQ ID NO:6) (YGRKKRRQRRRWILDKQDLLKERQKDLKFL) [TAT-HAD peptide, HIV TAT basic domain fused to the cyclin C holoenzyme association domain (HAD) peptide]
- time within which the translocation/fragmentation phenotype was lost [1]: ≤ 24 h
- cyclin C localization ([1]; peptide 25 μM, three hours): nuclear to cytoplasmic cyclin C translocation
- mitochondrial morphology ([1]; peptide 25 μM, three hours, MitoTracker Red): abnormal fragmented morphology

Molecule: N.N.[Cl][Pt][Cl] [cisplatin]
- cyclin C localization [2]: remained nuclear

Molecule: OO [H2O2]
- cyclin C localization [2]: remained nuclear
- cyclin C localization (HeLa cells): translocated from the nucleus to the cytoplasm
- cyclin C relocalization and mitochondrial fission (MCF-10A cells): normal cyclin C relocalization and mitochondrial fission
- Drp1 phosphorylation at Ser616 [3]: no increase

B1: GST-cyclin C: E. coli purified human GST-cyclin C (protein, UniProt P24863 1-283, looked up)
Cyclin-C: MAGNFWQSSHYLQWILDKQDLLKERQKDLKFLSEEEYWKLQIFFTNVIQALGEHLKLRQQVIATATVYFKRFYARYSLKSIDPVLMAPTCVFLASKVEEFGVVSNTRLIAAATSVLKTRFSYAFPKEFPYRMNHILECEFYLLELMDCCLIVYHPYRPLLQYVQDMGQEDMLLPLAWRIVNDTYRTDLCLLYPPFMIALACLHVACVVQQKDARQWFAELSVDMEKILEIIRVILKLYEQWKNFDERKEMATILSKMPKPKPPPNSEGEQGPNGSQNSSYSQS
modifications: GST tag
- Drp1 phosphorylation at Ser616 [4, 6]: no increase
- quantitation of the Ser616 phosphorylation signal ([4]; permeabilized cells): reduced
- time to total mitochondrial fragmentation ([5]; twice the GST-cyclin C Hs concentration): ≤ 8 min
- time at which significant mitochondrial fragmentation began ([5]; ~4 nM protein): ≤ 10 min
- percentage of culture exhibiting fragmented mitochondria by 18 min ([5]; ~4 nM protein, digitonin treated cells, 8-10% fragmented prior to treatment): 94%

B2: GST-cyclin C Sc: yeast cyclin C fused to GST (protein, UniProt P47821 1-323, looked up)
RNA polymerase II holoenzyme …: MSGSFWTSTQRHHWQYTKASLAKERQKLWLLECQLFPQGLNIVMDSKQNGIEQSITKNIPITHRDLHYDKDYNLRIYCYFLIMKLGRRLNIRQYALATAHIYLSRFLIKASVREINLYMLVTTCVYLACKVEECPQYIRTLVSEARTLWPEFIPPDPTKVTEFEFYLLEELESYLIVHHPYQSLKQIVQVLKQPPFQITLSSDDLQNCWSLINDSYINDVHLLYPPHIIAVACLFITISIHGKPTKGSSLASAASEAIRDPKNSSSPVQIAFNRFMAESLVDLEEVMDTIQEQITLYDHWDKYHEQWIKFLLHTLYLRPASAI
modifications: GST tag
- efficiency of inducing mitochondrial fission compared with human cyclin C [5, 6]: as efficient inducing mitochondrial fission as the human cyclin C
